Patent publication US20220372154A1 (APEXIGEN, published 2022)
Where a chain is given by its changes, count along the chain named.

T1: cynomolgus TNFR2-His tagged protein (cynomolgus, UniProt A0A2K5VET2 132-366)
T1 construct: also called Cyno TNFR2; cynomolgus TNFR2 protein; not shown: His tag
T1 sequence: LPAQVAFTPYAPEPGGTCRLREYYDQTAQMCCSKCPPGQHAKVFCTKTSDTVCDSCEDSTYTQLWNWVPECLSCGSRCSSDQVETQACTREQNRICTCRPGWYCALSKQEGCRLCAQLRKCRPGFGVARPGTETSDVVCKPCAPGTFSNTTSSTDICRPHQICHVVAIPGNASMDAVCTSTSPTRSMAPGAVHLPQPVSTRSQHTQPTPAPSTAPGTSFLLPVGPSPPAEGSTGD

T2: human TNFR2 expressed on cells (human, UniProt P20333 23-461)
T2 construct: whole, on cells; also called hTNFR2 (cell); CHO-TNFR2
T2 sequence (looked up): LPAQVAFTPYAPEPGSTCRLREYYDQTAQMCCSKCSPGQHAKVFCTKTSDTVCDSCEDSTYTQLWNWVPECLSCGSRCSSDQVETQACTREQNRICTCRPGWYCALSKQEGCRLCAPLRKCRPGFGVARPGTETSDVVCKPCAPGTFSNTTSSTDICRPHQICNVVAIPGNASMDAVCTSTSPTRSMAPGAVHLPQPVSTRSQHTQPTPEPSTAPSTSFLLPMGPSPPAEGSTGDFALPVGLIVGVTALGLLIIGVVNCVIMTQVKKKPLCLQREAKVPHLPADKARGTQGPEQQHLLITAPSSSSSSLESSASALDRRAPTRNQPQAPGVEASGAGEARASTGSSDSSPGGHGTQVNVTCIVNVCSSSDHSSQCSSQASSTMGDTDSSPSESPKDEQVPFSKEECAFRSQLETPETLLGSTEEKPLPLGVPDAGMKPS

T3: soluble mouse TNFR2 (mouse, UniProt P25119 23-258, limits assumed)
T3 sequence (looked up): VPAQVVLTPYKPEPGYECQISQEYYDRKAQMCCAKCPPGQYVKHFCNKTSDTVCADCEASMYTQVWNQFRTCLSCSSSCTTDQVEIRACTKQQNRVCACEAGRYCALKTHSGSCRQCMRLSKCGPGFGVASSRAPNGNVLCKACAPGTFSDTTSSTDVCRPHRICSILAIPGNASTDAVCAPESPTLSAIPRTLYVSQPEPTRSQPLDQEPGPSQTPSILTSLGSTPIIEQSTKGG

T4: TNFR-Fc (UniProt P20333 23-257, limits assumed)
T4 construct: Printed only as TNFR-Fc; not shown: Fc part
T4 sequence (looked up): T1 sequence with G16S, P36S, Q117P, H164N, A210E, G216S, V223M

T5: human TNFR2-His tagged protein (soluble) (human, UniProt P20333 23-257)
T5 construct: also called hTNFR2 (soluble); soluble TNFR2-His; not shown: His tag
T5 sequence (looked up): T1 sequence with G16S, P36S, Q117P, H164N, A210E, G216S, V223M

T6: TNFR2 CRD4 peptide (peptide 5; aa 146-174 of mature TNFR2) (human)
T6 construct: Range counted on mature TNFR2; also called peptide five; bin 5
T6 peptide: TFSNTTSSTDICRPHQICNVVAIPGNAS

B1: humanized antibody h600_HB_28B7.3 (antibody, V domains shown)
VH: EVQLVESGGGLVQPGGSLRLSCAASGFSLNSHYMIWVRQAPGKGLEWVGIITSSDYIYYARWAKGRFTISRDNSKNTLYLQMNSLRAEDTAVYYCARYNYDDDGELFNLWGQGTLVTVSS
VL: DIQMTQSPSSLSASVGDRVTITCQSSQSIDANNDLAWYQQKPGKAPKLLIYLASKLASGVPSRFSGSGSGTDFTLTISSLQPEDFATYYCLGGYDDDADNTFGGGTKVEIK
notes: also called h600_23_28B7
B2: humanized antibody h600_24_2 (antibody, V domains shown)
VH: EVQLVESGGGLVQPGGSLRLSCAASGFSFSVSYWICWVRQAPGKGLEWVACTDGGDGSSYYASWVNGRFTISRDNSKNTLYLQMNSLRAEDTAVYYCARDRSDVFNLWGQGTLVTVSS
VL: DIQMTQSPSSLSASVGDRVTITCQAGQSIDSNLAWYQQKPGKAPKLLIYRASTLASGVPSRFSGSGSGTDFTLTISSLQPEDFATYYCQSFYVTISAMVDYPFGGGTKVEIK
B3: humanized antibody clone 4 (taken as h600_23_4) (antibody, V domains shown)
VH: EVQLVESGGGLVQPGGSLRLSCAASGIDLSSYTMGWVRQAPGKGLEWVGFISSSGHTYYANWAKGRFTISRDNSKNTLYLQMNSLRAEDTAVYYCAREGGYGGYDYTGIFNLWGQGTLVTVSS
VL: DIQMTQSPSTLSASVGDRVTITCQATESISSWLAWYQQKPGKAPKLLIYGASTLESGVPSRFSGSGSGTEFTLTISSLQPDDFATYYCQQGYIYTNVDNTFGGGTKVEIK
B4: chimeric antibody clone 24-2 (rab600_24_2) (antibody, V domains shown)
VH: QEQLEESGGGLVQPEGSLALTCKASGFSFSVSYWICWVRQAPGKGLEWIACTDGGDGSSYYASWVNGRFTISKISSTTVTLQMTSLTAADTAIYFCARDRSDVFNLWGPGTLVTVSS
VL: DIVMTQTPASVEAAVGGTVTIKCQAGQSIDSNLAWYQQKPGQPPKLLIYRASTLASGVPSRFKGSGSGTEFALTISDLECADAATYFCQSFYVTISAMVDYPFGGGTEVVVK
B5: chimeric antibody clone 25-10 (rab600_25_10) (antibody, V domains shown)
VH: QSVEESGGRLVAPGTPLTLTCTVSGIDLSRYAMAWVRQAPGKGLEYIGYIDTGDSTYYATWAKGRFTISRTSTTVHLKIASPTTEDTATYFCTNVGVRMYLWGPGTLVTVSS
VL: DVVMTQTPASVEAAVGGTVTIKCQASQSISSYLSWYQQKPGQPPKLLIYRASTLESGVPSRFKGSGSGTEFTLTISDLECADAATYYCQCGYYGGSYIGAFGGGTEVVVK
B6: chimeric antibody clone 24-25 (rab600_24_25) (antibody, V domains shown)
VH: QSLEESGGGLVKPEGSLTLTCAVSGFDLNSYYWICWARQAPGKGLEWIACIDGGSTGSAYYASWAKGRLSISKASSTTVTLQMTSLTAADTATYFCARVQSYVGYANYGYPNYFNLWGPGTLVTVSS
VL: IEMTQTPSSVSAAVGGTVTINCQSSEDIDSYLAWYQQKPGQPPKLLIYHASYLTSGVPSRFSGSRSGTEFTLTISDLECDDAATYYCQSAYYSSSADNTFGGGTEVVVK
B7: chimeric antibody clone 24-62 (rab600_24_62) (antibody, V domains shown)
VH: QSLEESGGDLVVPGTSLTLTCTASGFDLSSFYYMCWVRQAPGKGLEWIACIYAVSSGSTYYASWAKGRFTVSRTSSTTATLQMTSLTAADTATYFCARHQSYETYGYVGVVYATYFSLWGPGTLVTVSS
VL: ALVMTQTPASVSAAVGGTVTINCQASEDIDSYLAWYQQKPGQPPKLLIYYASYLTSGVPSRFKGSGSGTEYTLTISGVQCDDAATYYCQSAFYSNNTETAFGGGTEVVVK
B8: chimeric antibody clone 24-97 (rab600_24_97) (antibody, V domains shown)
VH: QSLEESGGDLVKPGASLTLTCKASGFSFSSGHDMCWVRQAPGKGLEWIACIYPDYDITDYASWVNGRFTISLDNAQNTVFLQMTSLTAADTATYFCARSGYGGFRYGFNLWGPGTLVTVSS
VL: DIVMTQTPASVEVAVGGTVTIKCQASEDIENYLAWYQQKPGQPPKLLIYDASDLTSGVPSRFKGSGSGTQFTLTISDLECADAATYYCQSVYYTSSDNYNNAFGGGTEVVVK
B9: chimeric antibody clone 24-124 (rab600_24_124) (antibody, V domains shown)
VH: QEQLVESGGGLVTLGGSLKLSCKASGIDFSSYGISWVRQAPGKGLEWIAYIYPDYGSTDYATWVNGRFTISLDNAQNTVFLQMTSLTAADTATYFCASGYASSSGYYDPKYFGLWGPGTLVTVSS
VL: IKMTQTPASVSAAVGGTVTINCRASEDIESYLAWYQQKPGQPPKLLIYDASDLASGVPSRVKGSGSGTEFTLTISGVRCDDAATYYCQHGFYTSRSDSVFGGGTEVVVK
B10: chimeric antibody clone 25-31 (rab600_25_31) (antibody, V domains shown)
VH: QEQLKESGGGLVTPGTPLTLTCTASGFSLSSYDMSWVRQAPGKGLEWIGYIWSSGSAYYATWAEGRFTISKTSTTVGLKITSPTTEDTATYFCARRYVGSSYDTWGQGTLVTVSS
VL: AVLTQTPSPVSAAVGGTVTISCQSSQSVSNNNYLSWYQQKPGQPPKLLIYAASYLASGVPPRFSGSGSGTQFTLTISGVQCDDAATYYCLGDYDNDIDHAFGGGTEVVVK
B11: chimeric antibody clone 25-103 (rab600_25_103) (antibody, V domains shown)
VH: QEQLKESGGGLVTPGTPLTLTCTVSGIDLSSYAMGWVRQAPGKGLEYIGFIDTGGSTYYANWAKGRFTISRTSTTVDLKIASPTTEDAATYFCANVGARMYLWGPGTLVTVSS
VL: B5 VL with K22N, S31N, Y32L, S34A, G91S

target: T1, cynomolgus TNFR2-His tagged protein; test: ELISA, cynomolgus TNFR2

Binder | EC50 [nM]
B1 | 0.211
B2 | 0.131
B3 | 0.34

target: T2, human TNFR2 expressed on cells; test: cell binding on TNFR2-overexpressing (OE) cells

Binder | Kd [nM]
B1 | 0.13
B2 | 0.245

target: T3, soluble mouse TNFR2; test: binding screen on soluble mouse TNFR2 (mouse cross-reactivity)

Binder | binding result
B4 | no binding
B5 | binds
B6 | binds
B7 | binds
B8 | binds
B9 | no binding
B10 | no binding
B11 | binds

target: T4, TNFR-Fc; test: TNF-α blocking ELISA (soluble)

Binder | IC50 [nM]
B1 | 2.46
B2 | 3.52
B3 | 3.57

target: T2, human TNFR2 expressed on cells; test: blocking of biotinylated TNF-α on TNFR2-CHO cells, flow cytometry
Protocol: TNFR2-overexpressing CHO cells were plated at 100,000 cells per well. Cells were incubated with the indicated antibodies for 30 minutes on ice. […] Cells were analyzed using Cytoflex or MACSQuant flow cytometer. Assay was repeated twice.

Binder | IC50 [nM]
B1 | 0.379
B2 | 0.447

target: T5, human TNFR2-His tagged protein (soluble); test: ELISA on coated human TNFR2-His
Protocol: (§1) In FIGS. 3A-3B, human (3A) or cynomolgus (3B) TNFR2-His tagged protein was coated on 96-well ELISA plates at 1 μg/mL and incubated overnight at 4° C. Plates were washed and blocked using 1% BSA. Antibodies were added for 1 hour at room temperature (RT), washed, and detected using anti-Human HRP. Assay was developed using TMB substrate for 3-5 minutes. In FIG. 3C, FACS binding was performed on CHO cells that were engineered to express human TNFR2. Briefly, antibodies were incubated with 200,000 cells in MACS buffer for 1 hour followed by wash and detection using anti-human IgG BV421 for 20 minutes. Samples were analyzed using Cytoflex or MACSQuant flow cytometers. In FIG. 3D, ligand blocking ELISA was performed by coating plates with 1 ug/mL TNFR-Fc overnight at 4° C. Plates were washed, blocked and antibodies were incubated for 1 hr at RT. […] Assay was developed using TMB substrate for 5-7 minutes.

Binder | EC50 [nM]
B4 | 0.0981
B5 | 0.0862
B6 | 0.21
B7 | 0.137
B8 | 0.0632
B9 | 0.137
B10 | 0.0704
B11 | 0.0443

target: T2, human TNFR2 expressed on cells; test: flow cytometry, cell-expressed human TNFR2

Binder | EC50 [nM]
B1 | 0.28
B2 | 0.377
B3 | 1.13

target: T5, human TNFR2-His tagged protein (soluble); test: ELISA, soluble human TNFR2

Binder | EC50 [nM]
B1 | 0.24
B2 | 0.149
B3 | 0.111

target: T1, cynomolgus TNFR2-His tagged protein; test: ELISA on coated cynomolgus TNFR2-His
Protocol: as §1

Binder | EC50 [nM]
B4 | 0.0742
B5 | 0.0235
B6 | 0.189
B7 | 0.0958
B8 | 0.086
B9 | 0.0882
B10 | 0.038
B11 | 0.000348

target: T4, TNFR-Fc; test: TNF-α blocking ELISA on coated TNFR-Fc
Protocol: as §1

Binder | IC50 [nM]
B9 | 2.54
B10 | 4.13

Target: T6, TNFR2 CRD4 peptide (peptide 5; aa …)
Test: peptide-binding ELISA (potential peptide bin)

Binder | binding result
B4 | binds
B5 | binds
B6 | binds
B7 | binds
B8 | binds
B9 | binds
B10 | binds
B11 | binds

target: T2, human TNFR2 expressed on cells; test: flow cytometry on CHO cells expressing human TNFR2
Protocol: as §1

Binder | EC50 [nM]
B5 | 0.513
B9 | 0.179
B10 | 3.15
B11 | 0.946
